{"source": "patent US20190367620A1", "about": "(Merck KGaA, published 2019)", "assay_in_all_cases": "SPR as in Example 1.8", "key": {"[1]": {"target": "T1, FGFR1 D2 point mutant D88A (human, UniProt P11362 22-254)", "T1 chain": "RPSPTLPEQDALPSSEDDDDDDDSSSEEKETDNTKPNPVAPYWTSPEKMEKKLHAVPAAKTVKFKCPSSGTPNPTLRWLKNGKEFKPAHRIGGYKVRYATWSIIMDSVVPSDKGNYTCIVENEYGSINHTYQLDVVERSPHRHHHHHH", "procedure": "(§1) Binding affinities of anti-FGFR1 antibodies to FGFR1 were measured by Surface Plasmon Resonance (SPR) using a GE Healthcare BIAcore 4000 instrument as follows. Goat anti-human Fc antibody (Jackson ImmunoResearch Laboratories #109-005-098) was first immobilized on BIAcore carboxymethylated dextran CM5 chip using direct coupling to free amino groups following the procedure described by the manufacturer. Antibodies were then captured on the CM5 biosensor chip to achieve approximately 200 response units (RU). Binding measurements were performed using the running HBS-EP+ buffer. A 2-fold dilution series of His-tagged FGFR1 proteins were injected at a flow rate of 30 μl/min at 25° C. Association rates (kₒₙ, per mol/s) and dissociation rates (koff, per s) were calculated using a simple 1:1 Langmuir binding model (Biacore 4000 Evaluation Software). The equilibrium dissociation constant (KD, mol) was calculated as the ratio of koff/kₒₙ.\n(§2) To obtain a finer, residue-level mapping of the epitope and to complement the HD exchange data, molecular modelling and manual inspection of the crystal structure of FGFR1 [(Beenken et al. 2012); PDB record 3OJV] was used to select solvent exposed residues within and around the epitope identified by HD exchange. The selected residues were mutated either to alanine (large to small) or to glycine if the selected residue was alanine. In total 35 point mutants were designed, expressed and purified in HEK cells, and tested for binding to mAb #A08 using surface plasmon resonance as described in Example 1.8. The affinity of the antibody for wild-type and each mutant was determined and used to calculate the contribution of each epitope residue to the binding energy."}, "[2]": {"target": "T2, FGFR1 D2 point mutant V96A (human, UniProt P11362 22-254)", "T2 chain": "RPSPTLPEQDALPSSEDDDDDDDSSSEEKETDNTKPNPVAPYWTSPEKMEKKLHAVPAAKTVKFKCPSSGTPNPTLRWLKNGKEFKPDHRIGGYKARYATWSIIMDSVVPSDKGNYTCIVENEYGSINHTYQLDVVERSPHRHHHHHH", "procedure": "as §1, §2"}, "[3]": {"target": "T3, human FGFR1b-IIIb extracellular domain with a HIS tag (human)", "T3 construct": "also called huFGFR1b-IIIb; hFGFR1b-IIIb", "T3 chain": "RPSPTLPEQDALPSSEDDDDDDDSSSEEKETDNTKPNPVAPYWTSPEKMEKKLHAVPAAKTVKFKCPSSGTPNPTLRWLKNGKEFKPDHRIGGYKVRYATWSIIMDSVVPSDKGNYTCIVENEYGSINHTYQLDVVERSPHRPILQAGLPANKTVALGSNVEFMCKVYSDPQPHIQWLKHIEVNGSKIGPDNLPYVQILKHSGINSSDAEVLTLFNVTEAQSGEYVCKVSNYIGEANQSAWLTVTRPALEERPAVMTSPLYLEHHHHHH", "procedure": "as §1, §2"}, "[4]": {"target": "T4, FGFR1 D2 point mutant G92A (human, UniProt P11362 22-254)", "T4 chain": "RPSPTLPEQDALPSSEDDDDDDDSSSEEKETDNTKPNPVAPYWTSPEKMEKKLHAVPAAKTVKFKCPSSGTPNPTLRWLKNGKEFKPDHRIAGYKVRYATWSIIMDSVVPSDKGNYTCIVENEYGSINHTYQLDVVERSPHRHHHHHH", "procedure": "as §1, §2"}, "[5]": {"target": "T5, FGFR1 D2 point mutant S45A (human, UniProt P11362 22-254)", "T5 chain": "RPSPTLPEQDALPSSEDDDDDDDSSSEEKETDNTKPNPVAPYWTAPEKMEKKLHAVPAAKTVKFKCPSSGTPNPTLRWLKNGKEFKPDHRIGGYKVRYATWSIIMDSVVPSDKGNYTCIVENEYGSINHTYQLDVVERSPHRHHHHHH", "procedure": "as §1, §2"}, "[6]": {"target": "T6, FGFR1 D2 point mutant H89A (human, UniProt P11362 22-254)", "T6 chain": "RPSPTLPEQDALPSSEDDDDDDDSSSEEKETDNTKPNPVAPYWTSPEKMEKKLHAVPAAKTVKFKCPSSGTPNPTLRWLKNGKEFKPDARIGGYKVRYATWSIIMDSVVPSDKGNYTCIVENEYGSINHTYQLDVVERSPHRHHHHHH", "procedure": "as §1, §2"}, "Human FGFR1 D2-His6": {"target": "T7, Human FGFR1 D2-His6 (human, UniProt P11362 22-254)", "T7 construct": "also called D2 domain; F3FR1c-D2", "T7 sequence": "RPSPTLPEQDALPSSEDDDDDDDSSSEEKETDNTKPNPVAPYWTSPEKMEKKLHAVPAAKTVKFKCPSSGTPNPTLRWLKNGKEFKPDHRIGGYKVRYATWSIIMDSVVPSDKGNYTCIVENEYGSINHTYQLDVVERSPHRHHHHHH", "procedure": "as §1, §2"}, "[7]": {"target": "T8, FGFR1 D2 point mutant R97A (human, UniProt P11362 22-254)", "T8 chain": "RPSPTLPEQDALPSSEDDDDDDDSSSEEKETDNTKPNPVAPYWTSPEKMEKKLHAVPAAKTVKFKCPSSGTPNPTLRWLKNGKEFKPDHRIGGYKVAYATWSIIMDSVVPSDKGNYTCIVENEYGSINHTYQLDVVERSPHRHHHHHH", "procedure": "as §1, §2"}, "[8]": {"target": "T9, FGFR1 D2 point mutant S102A (human, UniProt P11362 22-254)", "T9 chain": "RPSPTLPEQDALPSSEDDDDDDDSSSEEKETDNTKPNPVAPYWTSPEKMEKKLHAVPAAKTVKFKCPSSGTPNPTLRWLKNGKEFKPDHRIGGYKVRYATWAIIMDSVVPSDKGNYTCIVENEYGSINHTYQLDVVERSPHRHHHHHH", "procedure": "as §1, §2"}, "[9]": {"target": "T10, FGFR1 D2 point mutant G93A (human, UniProt P11362 22-254)", "T10 chain": "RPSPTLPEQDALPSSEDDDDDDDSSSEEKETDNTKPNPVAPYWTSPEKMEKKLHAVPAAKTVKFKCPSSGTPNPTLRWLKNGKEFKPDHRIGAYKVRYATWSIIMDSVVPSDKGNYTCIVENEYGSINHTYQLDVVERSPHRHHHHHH", "procedure": "as §1, §2"}}}
{"binder": "mAb #A08 (antibody, V domains shown, Only variable domains are tied to the name mAb #A08 (hit); also called #A08 hit; mAb #08) VH: EVQLQESGPGLVKPSGTLSLTCAVSGGSISSNNWWSWVRQPPGKGLEWIGEIYHSGSTSYNPSLKSRVTISVDKSKNQFSLKLNSVTAADTAVYYCARGTDWFDPWGQGTLVTVSS VL: QAVLTQPPSVSVAPGQTARITCGGNNIGSESVHWYQQKPGQAPVLVVYDDSDRPSGIPERFSGSNSGNTATLTISRVEAGDEADYYCQVWDSTSDHRVFGGGTKLTVL", "values": [{"measurement": "Kd", "setting": "[1]", "result": 0.16, "unit": "nM"}, {"measurement": "Kd", "setting": "[2]", "result": 0.19, "unit": "nM"}, {"measurement": "Kd", "setting": "[3]", "result": 0.47, "unit": "nM"}, {"measurement": "Kd", "setting": "[4]", "result": 0.28, "unit": "nM"}, {"measurement": "Kd", "setting": "[5]", "result": 0.21, "unit": "nM"}, {"measurement": "Kd", "setting": "[6]", "result": 0.19, "unit": "nM"}, {"measurement": "Kd", "setting": "Human FGFR1 D2-His6", "result": 0.19, "unit": "nM"}, {"measurement": "Kd", "setting": "[7]", "result": 4.25, "unit": "nM"}, {"measurement": "Kd", "setting": "[8]", "result": 0.16, "unit": "nM"}, {"measurement": "Kd", "setting": "[9]", "result": 0.32, "unit": "nM"}]}
